The results in this text go back to publication PMC8567202, “Phosphoinositide-binding activity of Smad2 is essential for its function in TGF-β signaling” (The Journal of Biological Chemistry, 2021).

This data set is described as follows: SPR membrane binding to POPC/POPS/PI(4,5)P2 vesicles. The settings on record: SPR; for affinity for POPC/POPS/PI(4,5)P2 (77:20:3) relative to WT: Kd comparison, in words; for Kd: L1 chip, 23 °C, 20 mM Tris, pH 7.4, 0.16 M NaCl, POPC/POPS/PI(4,5)P2 (77:20:3), average ±S.D., n = 3, read-out: Kd for lipid binding, PC/PS/PI(4,5)P2; for PI(4,5)P2 selectivity over POPC/POPS (80:20) / binding to POPC/POPS/PI(4,5)P2 (77:20:3): RU/RUmax, 100 nM protein. From the text:
It has been generally thought that Smad2 and Smad3 are targeted to the activated TGF-β signaling complex by direct interaction with TβRI ([1], [2]) or via SARA ([7]). However, it has been shown that many cytosolic proteins that are targeted to membrane proteins or membrane-anchored signaling complexes have affinity for membrane lipids ([14]), phosphoinositides (PtdInsPs) in particular, and that their membrane recruitment is mediated by coincident lipid–protein and protein–protein interactions ([15], [16]). For most of these proteins, their PtdInsP specificity directs their membrane targeting behaviors: e.g., PI(4,5)P2-specific proteins are recruited to PM where the highest concentration of PI(4,5)P2 is found, whereas PI(3)P-specific proteins are targeted to PI(3)P-rich EEs ([17], [18]). To resolve uncertainty about the functional location of the activated TGF-β signaling complex, we thus explored the possibility that lipid-binding activity of Smad2 may play a role in specific targeting of Smad2 to the active TGF-β receptor complex either at the PM or at EEs. Lipid-binding activity of Smad proteins has not been reported to date. We thus measured the binding of bacterially expressed Smad2 to large unilamellar vesicles (LUVs) containing various lipids by surface plasmon resonance (SPR) analysis ([19], [20]). Lipid selectivity determined by SPR analysis is typically reported as the relative resonance unit (RU) values for different lipids at a given protein concentration ([21], [22]). Although simple and intuitive, this type of analysis can sometimes yield misleading and erroneous results because some proteins show widely different RU values when bound to different lipid surfaces. Thus, a more reliable parameter that represents the fraction of the membrane bound protein molecules at a given protein concentration would be a normalized value of RU/RUmax where RUmax indicates the maximal RU value when a given lipid surface is saturated with the protein molecules. We thus estimated RUmax for different lipid species by employing the highest protein concentration experimentally feasible (e.g., 1 μM) and determined RU/RUmax for different lipids at the protein concentration that allows robust comparison (e.g., 100 nM). Once the lipid selectivity has been determined by this semiquantitative approach, we then rigorously determined and compared Kd values for selected lipids for more accurate quantitative determination of lipid selectivity.
Figure 1 Membrane-binding properties of Smad2 FL protein and MH2 domain determined by SPR analysis.A, PtdInsP selectivity of Smad2-FL determined using POPC/POPS/PtdInsP (77:20:3 in mole ratio) LUVs coated on the L1 sensor chip. The protein concentration was 100 nM. PIP3 indicates PI(3,4,5)P3. B, determination of Kd for binding of Smad2 FL to different LUVs. The protein concentration was varied from 0 to 500 nM. C, PI(4,5)P2 concentration dependence of membrane binding of Smad2-FL determined using POPC/POPS/PI(4,5)P2 (77-x:20:x, x = 0–5 mol%) LUVs. The protein concentration was 100 nM. D, PtdInsP selectivity of the Smad2 MH2 domain determined using POPC/POPS/PtdInsP (77:20:3 in mole ratio) LUVs. The protein concentration was 100 nM. Normalized RU values (RU/RUmax) were used for all figures but (C) for more accurate determination of PtdInsP selectivity. RUmax values determined for different vesicles at 1 μM Smad2 were: 280 ± 20 for POPC/POPS/PI(4,5)P2 (77:20:3), 370 ± 10 for POPC/POPS/PI(3,4)P2 (77:20:3), 400 ± 15 for POPC/POPS/PI(3,4,5)P3 (or PIP3) (77:20:3), 400 ± 20 for POPC/POPS/PI(3)P (77:20:3), and 380 ± 20 for POPC/POPS (80:20). Only the association phases of the sensorgrams are shown and used for further analysis. Each set of sensorgrams shown in A and D are representatives of >5 independent measurements. Data points shown in B and C are the average ±S.D. values from triplicate measurements. […]

“Also recorded” adds a separate entry of the source.

B1: Smad2-W422A: W422A mutant of full-length Smad2; specific PI(4,5)P2 binding-compromised (protein)
chain: MSSILPFTPPVVKRLLGWKKSAGGSGGAGGGEQNGQEEKWCEKAVKSLVKKLKKTGRLDELEKAITTQNCNTKCVTIPSTCSEIWGLSTANTVDQWDTTGLYSFSEQTRSLDGRLQVSHRKGLPHVIYCRLWRWPDLHSHHELKAIENCEYAFNLKKDEVCVNPYHYQRVETPVLPPVLVPRHTEILTELPPLDDYTHSIPENTNFPAGIEPQSNYIPETPPPGYISEDGETSDQQLNQSMDTGSPAELSPTTLSPVNHSLDLQPVTYSEPAFWCSIAYYELNQRVGETFHASQPSLTVDGFTDPSNSERFCLGLLSNVNRNATVEMTRRHIGRGVRLYYIGGEVFAECLSDSAIFVQSPNCNQRYGWHPATVCKIPPGCNLKIFNNQEFAALLAQSVNQGFEAVYQLTRMCTIRMSFVKGAGAEYRRQTVTSTPCWIELHLNGPLQWLDKVLTQMGSPSVRCSSMS
modifications: left off: His6, N-terminal, state not stated
On to B1, for which the “affinity for POPC/POPS/PI(4,5)P2 (77:20:3) relative to WT” value was “three- to five-fold lower affinity”, the Kd was found to be 470 ± 96 nM, the “PI(4,5)P2 selectivity over POPC/POPS (80:20)” value is given as “essentially no PI(4,5)P2 selectivity; also recorded: lost the PI(4,5)P2 selectivity” and the “binding to POPC/POPS/PI(4,5)P2 (77:20:3)” value is on record as “greatly reduced binding”.

B2: Smad2-E425K: charge-reversal mutant of full-length Smad2; PI(4,5)P2 and TβRI binding-enhanced (protein)
chain: MSSILPFTPPVVKRLLGWKKSAGGSGGAGGGEQNGQEEKWCEKAVKSLVKKLKKTGRLDELEKAITTQNCNTKCVTIPSTCSEIWGLSTANTVDQWDTTGLYSFSEQTRSLDGRLQVSHRKGLPHVIYCRLWRWPDLHSHHELKAIENCEYAFNLKKDEVCVNPYHYQRVETPVLPPVLVPRHTEILTELPPLDDYTHSIPENTNFPAGIEPQSNYIPETPPPGYISEDGETSDQQLNQSMDTGSPAELSPTTLSPVNHSLDLQPVTYSEPAFWCSIAYYELNQRVGETFHASQPSLTVDGFTDPSNSERFCLGLLSNVNRNATVEMTRRHIGRGVRLYYIGGEVFAECLSDSAIFVQSPNCNQRYGWHPATVCKIPPGCNLKIFNNQEFAALLAQSVNQGFEAVYQLTRMCTIRMSFVKGWGAKYRRQTVTSTPCWIELHLNGPLQWLDKVLTQMGSPSVRCSSMS
modifications: left off: His6, N-terminal, state not stated
As to B2, the Kd came out at 70 ± 7 nM, the “PI(4,5)P2 selectivity over POPC/POPS (80:20)” value is on record as “retaining the PI(4,5)P2 selectivity of WT” and the “binding to POPC/POPS/PI(4,5)P2 (77:20:3)” value is listed as “modestly higher membrane binding than WT”. The “higher affinity for POPC/POPS/PI(4,5)P2 (77:20:3) than WT” value (increase in affinity vs WT) is given as ~40%.

B3: Smad2-Y426A: Y426A mutant of full-length Smad2; specific PI(4,5)P2 binding-compromised (protein)
chain: MSSILPFTPPVVKRLLGWKKSAGGSGGAGGGEQNGQEEKWCEKAVKSLVKKLKKTGRLDELEKAITTQNCNTKCVTIPSTCSEIWGLSTANTVDQWDTTGLYSFSEQTRSLDGRLQVSHRKGLPHVIYCRLWRWPDLHSHHELKAIENCEYAFNLKKDEVCVNPYHYQRVETPVLPPVLVPRHTEILTELPPLDDYTHSIPENTNFPAGIEPQSNYIPETPPPGYISEDGETSDQQLNQSMDTGSPAELSPTTLSPVNHSLDLQPVTYSEPAFWCSIAYYELNQRVGETFHASQPSLTVDGFTDPSNSERFCLGLLSNVNRNATVEMTRRHIGRGVRLYYIGGEVFAECLSDSAIFVQSPNCNQRYGWHPATVCKIPPGCNLKIFNNQEFAALLAQSVNQGFEAVYQLTRMCTIRMSFVKGWGAEARRQTVTSTPCWIELHLNGPLQWLDKVLTQMGSPSVRCSSMS
modifications: left off: His6, N-terminal, state not stated
As for B3, the “affinity for POPC/POPS/PI(4,5)P2 (77:20:3) relative to WT” value is given as “three- to five-fold lower affinity”, the Kd amounted to 400 ± 44 nM, the “PI(4,5)P2 selectivity over POPC/POPS (80:20)” value is “essentially no PI(4,5)P2 selectivity; also recorded: lost the PI(4,5)P2 selectivity” and the “binding to POPC/POPS/PI(4,5)P2 (77:20:3)” value is “greatly reduced binding”.

B4: Smad2-K420A: K420A mutant of full-length Smad2; predominantly TβRI binding-compromised (protein)
chain: MSSILPFTPPVVKRLLGWKKSAGGSGGAGGGEQNGQEEKWCEKAVKSLVKKLKKTGRLDELEKAITTQNCNTKCVTIPSTCSEIWGLSTANTVDQWDTTGLYSFSEQTRSLDGRLQVSHRKGLPHVIYCRLWRWPDLHSHHELKAIENCEYAFNLKKDEVCVNPYHYQRVETPVLPPVLVPRHTEILTELPPLDDYTHSIPENTNFPAGIEPQSNYIPETPPPGYISEDGETSDQQLNQSMDTGSPAELSPTTLSPVNHSLDLQPVTYSEPAFWCSIAYYELNQRVGETFHASQPSLTVDGFTDPSNSERFCLGLLSNVNRNATVEMTRRHIGRGVRLYYIGGEVFAECLSDSAIFVQSPNCNQRYGWHPATVCKIPPGCNLKIFNNQEFAALLAQSVNQGFEAVYQLTRMCTIRMSFVAGWGAEYRRQTVTSTPCWIELHLNGPLQWLDKVLTQMGSPSVRCSSMS
modifications: left off: His6, N-terminal, state not stated
For B4, the Kd was determined as 120 ± 12 nM; the “binding to POPC/POPS/PI(4,5)P2 (77:20:3)” value was “modestly and similarly reduced binding to both vesicles”. Also, the “lower affinity for POPC/POPS/PI(4,5)P2 (77:20:3) than WT” value (decrease in affinity vs WT) came to 20%.

B5: Smad2- R427A/R428A: double mutant of full-length Smad2; PI(4,5)P2 and TβRI binding-compromised (protein)
chain: MSSILPFTPPVVKRLLGWKKSAGGSGGAGGGEQNGQEEKWCEKAVKSLVKKLKKTGRLDELEKAITTQNCNTKCVTIPSTCSEIWGLSTANTVDQWDTTGLYSFSEQTRSLDGRLQVSHRKGLPHVIYCRLWRWPDLHSHHELKAIENCEYAFNLKKDEVCVNPYHYQRVETPVLPPVLVPRHTEILTELPPLDDYTHSIPENTNFPAGIEPQSNYIPETPPPGYISEDGETSDQQLNQSMDTGSPAELSPTTLSPVNHSLDLQPVTYSEPAFWCSIAYYELNQRVGETFHASQPSLTVDGFTDPSNSERFCLGLLSNVNRNATVEMTRRHIGRGVRLYYIGGEVFAECLSDSAIFVQSPNCNQRYGWHPATVCKIPPGCNLKIFNNQEFAALLAQSVNQGFEAVYQLTRMCTIRMSFVKGWGAEYAAQTVTSTPCWIELHLNGPLQWLDKVLTQMGSPSVRCSSMS
modifications: left off: His6, N-terminal, state not stated
As to B5, the “affinity for POPC/POPS/PI(4,5)P2 (77:20:3) relative to WT” value is on record as “three- to five-fold lower affinity”, the Kd came out at 340 ± 53 nM, the “PI(4,5)P2 selectivity over POPC/POPS (80:20)” value is “essentially no PI(4,5)P2 selectivity; also recorded: lost the PI(4,5)P2 selectivity” and the “binding to POPC/POPS/PI(4,5)P2 (77:20:3)” value is “greatly reduced binding”.
